The nanobody polyreactivity screen of Harvey et al. (2022)

Test: yeast display, Sf9 membrane polyspecificity reagent, FACS + sequencing; frameworks hold sequencing errors
Outline: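 A synthetic nanobody library was expressed on Saccharomyces cerevisiae BJ5465 by galactose induction for 36–48 hours. The library was stained for 1 hour at 4 °C with 10% biotinylated, detergent-solubilized Sf9 membrane reagent and enriched with streptavidin microbeads before FACS. Low and high (top ~1%) gates were set on anti-HA fluorescence for expression and streptavidin fluorescence for reagent binding, and each polyreactivity label reflects the gate of origin.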

Sequence	polyreactivity (PSR sort gate)
QVQLVYSGGGLVQAGGSLRLSCAASGISFSQYAMGWYRQAPGKERELVASISSGGRTNYADSVKGRFTISRDNAKNTVYLQLNSLTPEDTAVYYCAAEQWGWYWYDYWGQGTQVTVSS	high polyreactivity
QVQLVESGGGLVQAGGSLRLSCAASGFTFYKNTMGWYRQAPGKERELVAAISSSGSSTYYADSVKGRFTISRDNAKNTVYLQMNSLKPEDTAVYYCAAGRFAYHDDYWGQGTQVTVSS	high polyreactivity
QVQLVESGGGLVQAGGSLRLSCAASGFIFRSYAMGWYRQAPGKERELVAAINSRAGNTYYADSVKGRFTISRDNAKNTVYLQINSLKPEDNAVYYCNAVRHTYGYYSWGQGTQVTVSS	high polyreactivity
QVQLVESGGGLVQAGGSLRLSCAASGSTLSRYTMGWSRQAPGKERELVAAIRSSGGSTYYADSVKGRFTISRDNAKNTVYLQMNSLKPEDTAVYYCARTQQRTTEREHWIRYYYWGQGTQVTVSS	low polyreactivity
QVQLVESGGGLVQAGGSLRLSCAASASISYYYAMGWYRQETGKERELVAAITRTGTTNYADSVKGRFTISRDNAKNTVYLQMNSLKPEDTAVYYCAKRSTGRLQSYNYRGQGTQVTVSS	low polyreactivity
QVQLVESGGGLVQAGGSLRLSCAASGSTFVSNAMGWYRQAPGKERELVARITGSGGNTYYADSVKGRFTISRDNAKNTVYLQMNSLKPEDTAVYYCNADVFRKFGSPSAYKSHRYDYWGQGTQVTVSS	low polyreactivity
QVQLVESGGGLVQAGGSLRLSCAASGFTFVPYDMGWYRQAPGKERELVAAITDSSGSTHYADSVKGRFTFSRDNAKNTVYLQMNSLKPEDTAVYYCAADDSSRTTYDYWGQGTQVTVSS	low polyreactivity
QVQLVESGGGLVQAGGSLRLSCAASGITFAGYAMGSDREAPGTERELVAAITRRGGITYYADSVKGRFTISRDNAKNTVYLQMNSLKPEDTAVYYCNAGRRVSTYGYWGQGTQVTVSS	high polyreactivity
QVQLVESGGGLVQAGGSLRLSCAASGRTFKYNAMGWYRQAPGKRKELVAAISSGGSTYYADSVKGRFTISRDNAKNTVYLQMNSLKPEDTAVYYCAVRNTKSYWFGYWGQGTQVTVSS	high polyreactivity
QVHLVESGGGLVQAGGSLRLICAASGSTFWSYAMGWYRQAPGKERELVAAITSGGRTYYADSVKGRFTISRDNAKNTVYLQMNRLKPEYTAVYNCNAVVRHTYRRFDYWGQGTQVTVSS	high polyreactivity
QVQLVESGGGLVQAGGSLRLSCAASGRIFYVNTMGWYRQAPGKERELVATISSAASTNYADSVKGRFTISRDNAKNTVYLQMNSLKPEDTAVYYCNAAFYKEYFYWGQGTQVTVSS	low polyreactivity
QVQLVESGGGLVQAGGSLRLSCAASGSTFSTNAMGWYRQAPGKERELVAAISRSGGSTYYADSVKGRFTISRDNAKNTFYLQMNSLKPEDTAVYYCARYSYRGTNVRYDYCGQGTQVTVSS	high polyreactivity
QVQLVESGGVLVQAGGSLRLSCAASGSISFNAMGWYRQAPGKERELVAAITTSGGRTYYADSVKGRLTISRDNAKNTVSLQMNSLKPEDTAVYYCNVASKGRFARYAAEYVSWRQGTQVTVSS	high polyreactivity
QVQLVESGGGLVQAGGSLRLSCAASGLIFVPYAMGWYIQAPGKERELVAAISRSGGSTYYADSVKGRFTISRDNAKNTVYLQMNSLKPEDTAVYYFATLNYYGEVEYWGQGTQVTVSS	high polyreactivity
QVQLVESGGGLVQAGGSLRLSCAASGFIFAWYAMGWYRQAPGKERELVASISVSDGSTYYADSVKGRFTISRDNAKNTVYLQMNSLKPEDTAVYYCAAEVSSDYYNSDYYWGQGTQVTVSS	low polyreactivity
QVQLVESGGGLVQAGGSRRLSCAASGSTFYGYAMGWYRHAPGKEREFVAAITTSGGSTYYADSVKGRFTISRDNAKNTVYLQMNSLKPEDTAVYYCAADGFYYDDGYWGQGTQVTVSS	low polyreactivity
QVQLVESGGGLDQAGGSLRLSCAASGRTFIRNVMGWYRQAPGKERELVAGITGGGNTYYADSVKGRFTISRDNAKNTVYLQMNSLKPEDTAVYYCAVRYPSYGLSYVRYGYWGQGTQVTVSS	high polyreactivity
QVQLEESGGRLVQAGGSLRLTSAASGGIFSVYAMGWYRQAPGKERQLVASITVSGGSTSYADSVKGRFTISRDNAKNTVYLQMKSLKPEDTAVYYCAVYQYVGYTMDYWGQGTKVTVSS	low polyreactivity
QVQLVESGGGLVQAGGSHRLSCAASGRIYYYTMGWYRQAPGKERELVATITSSGSSTYYADSVKGRFTISRDNAKNTFYLQLNRLKPEDTAVYYCAAAGGGVRKVWGGSRYGYWGQGTQVTVSS	high polyreactivity
QVQLVESGGGLVQAGGILSLSCAASGSTFVGNAMGWYRPAPGKERELVATISNSGGRTYYADSVKGRFTISRDNAKNTVYLQMNSLKPEETAVYYCAADPPAFGPGYSFDYWGHGTQVTVSS	low polyreactivity
QVQLVESGGGLVQAGGSIRISCAPSGRTFNYYAIGWNRPAPAQEREFVAAITKSCGSTYYADSVKGRFTISRDNAKYTVYLQMNSVKPEDTAVYYCATTHRYRVVYWRQGTQVTVSS	high polyreactivity
QVQLVESGGGLVQAGGSLRLSCAASGLPFRFNALGWNRQAPGKERELVARISAGGGSTYYADSVKGRFTISRDNAKNTVYLQMNSLKPEDTAVYYCAVDKSTEFSSGPHVAGDDSWGQGTQVTVSS	low polyreactivity

Sequence	polyreactivity (PSR sort gate)
QVQLVESGGGLVQAGGSLRLSCAATGRIFQRNAMGWYRQAPGKERELVAVISKSGGSTYYADSVKGRFTISRDNAKNTVYLQMNSLKPEDTAVYYCATRYFRPGEKYDYWGQGTQVTVSS	low polyreactivity
QVQLVESGGGLVQAGGSLRLSCAASGNTYSYNAMGWYRQAPGKEREFVASISRRGGRTNYADSVKGRFTISRDNAKYTVYLQMNSLKPEDTAVYYCAATTVPLGDYWGQGTQVTVST	high polyreactivity
QVQLVESGGGLVQAGGSLRLSCAASGRIFYLYAMGWYRQAPGKERELVAAISVSGARTYYADSVKGRFTISRDNAKNNVYLQMNSLKPEDTAVYYCATVGPYRSRRAGDYWGQGTQVTVSS	high polyreactivity
QVQLVESGGGLVQAGGSLRLSCAASGGTPQNAMGWYRQAPGKDRELVAAISKRGGSTYYADSVKGRFTISRDNAKNTGYLQMNSLKPEDTAVYDCAAVSQRAQHTSEYDYWGQGTQVTVSS	high polyreactivity
QVQLVESGGGKVQEGGSLRLSCAASGRTLAPYAMGWYRQAPGKERELVAISTIGGTTYYADSVKGRFTISRDNAKNTVYLQMNSLKPEDTAVYYGAADGNSTGVYLDGGEGFAYDYWGQGTQVTVSS	low polyreactivity
QVQLVESVGGLVQAGGSLRLSCAASGSTFAYNDMGWYRQAPGKERELVPDIRSGGNTNYADSVKGRFTISRDNAKNTVYLQMNSLKPEDTAVYYCATDGYRIDVYHPDYRYDYWGQGTQVTVSS	low polyreactivity
QVQLVESGGGLVQAGGSLRLSCAASGIIFEGNVMGWYRHAPAKERELVAAITSDTSTNYADSVKGRFTISRDNAKNTVYLQMNSLKPVDTAVYYFNAVICTDYYYSGTAEFYYWGQGTQVTVSS	low polyreactivity
QVQLVESGGGLVQAGGSLRLSCAASGFIFDGNAMGWYRPAPGKERELVAAIRSGGRTNYADSVNGRFTISRDNAKNTVYLQMNSLKPEDTAVYYCAARSIYPYYYRRDNRYYYWGQGTQVTVSS	high polyreactivity
QVQLVESGGGLVQAGGSLRLICAASGSIFAGNAMGWYRQAPGKERELVADITSGDSTYYADSVKGRFTISRDNAKNTVYLQMNSLKPEDTAVYYCAADSWDSQVVSYEYWGQGTQVTVSS	low polyreactivity
QVQLVESGGGLVQAGGSLRLSCAASGRTLYYNTMGWYRPAPGKERELVSSIRWDGGRTYYADSVKGRFTISRDNAKNTVYLQMNSLKPEDTAVYYCAKDGCYYYGTYAYDGCFDYWGQGTQVTVSS	low polyreactivity
QVQLVESGGGLVHAGCRLRLSCAPSGSILYYNAMGGYRQAPGNERELVAAITSGGSTYADSVKGRFTISRDNAKNTVYLQMYSLKPEDTAVDYCAADLDWSLSVFGTTLEHDDWGQGTQVTVSS	low polyreactivity
QVQLVESGGGLVQAGGSLRLSCAASGSIVRFYAMGWYRQAPGKERELVASITSGGSTNYADSVKGRFTISRDNAKNTVYLQMNSLKPEDTAVYYCAVRLKGYRRRDYWGQGTQVTVSS	high polyreactivity
QVQLVESGGGLVQAGGSLRLICAASGGTFRYYTMVWYRQAPGKERELVAAITRGGRTYYADSVKGRFTISRDNAKNTVYIQMNSLKPEDTAVYYCAGVRPRSPVSYENDYWGQGTQVTVSS	high polyreactivity
QVQLVESGGGLVQAGGSLRLSCAASGRIFFRYVMGWYRQAPGKERELVAAISSGGRTYYADSVKGRFTISRDNAKNTVYLQMNSLKPEDTAVYYCAADLLLYSSQDNDYWGQGTQVTVSS	low polyreactivity
QVQLVESGGGLVQAGGSLRLSCAASGSTFYYNAMGWYRQAPGKERELVAAIRTSGGRTYYADSVKGRFTISRDNAKNTVYLQMNSLKPEDTAVYYCAADGTAVHYTYDYWGQGTQVTVSS	low polyreactivity
QVQLVESAGGLVQAGGSLSLSCAASGSILSRYAMGWYRQAPGKERELVAAINWSGSSTYYADSVKGRFTISRDNAKNTVYLQMNSLKPEDTAVYYCAKLYVTPRRLPYDYWGQGTQVPVSS	high polyreactivity
QVQLVESGGGLVQAGGSLRLSCAASGRILPWYAMGWYRQAPWKERELVAGISSNGGSTYYADSVKGRFTSSRDNPKNTVYLQMNSLKTEDTAVYYCAARVWYWRHYPSDYWGQGTQVTVSS	high polyreactivity
QVQLGESGGGLVQAGGSLRLSCAASGRIFQIYGMGWYRQAPGKERELVASISSGDSTNFADSVKGRFTISRDNAKNTVYLQMNSLIPEDTAVYYCAARSRRAYNYWGQGTQVTVSS	high polyreactivity
QVQLVESGGGLVQAGGILRLSCAASGFTFISNAMGWYRQAPGKERELVAAISSSGGRTYYADSVKGRFTISRDNAKNTVYLQMNRLKPEDTAVYYCNADRSLLYSRKIEYDYWGQGTQVTVSS	low polyreactivity
QVQLVESGGGLVQAGGRLRLSCAASGRTIANYAMGWYRQAPGKERELVAAISFSTVSTYYADSVKGRFTISRDNAKNTVYLQMNSLKPEDTAVYYCAARRLGYYRKVKELDYWGQGTQVTVSS	high polyreactivity
QDQLVESGGGLVQAGGILSLICAASGITFHSNDMGWYRQAPGKERELVAAISWSDDTTYYADSVKGRFTISRDNAKNTVYLQMNSLKPEDTAVYYCAAEFFGSYGYYEYDYWGQGSQVTVSS	high polyreactivity
